Test results published in US20200399712A1, “COMPOSITIONS AND METHODS FOR THE DIAGNOSIS AND DETECTION OF TUMORS AND CANCER PROGNOSIS” (priority 2018, published 2020).
“Also recorded” adds a separate entry of the source.

Key:
HPV-16 genome = test: qPCR sensitivity against HPV-16 copy number (known-copy HPV-16 DNA among 10 ng normal human DNA); conditions: for number of reactions against 10 HPV-16 copies / number of reactions under 30 HPV-16 copies: samples tested 3 times, 10 ng DNA from healthy individual
From the text: (§1) All samples were run in triplicates.
To seek the most promising primer-probe set in the viewpoint of sensitivity, Applicants evaluated the sensitivity analysis for these candidate primer-probe sets. […] Therefore, the sensitivity of E6 (FIG. 3A) and E7 (FIG. 3B) was also 30 copies. […] The candidate primer-probe sets were the “Min-4” (FIG. 3C), “Min-5” (FIG. 3D), “Min-6” (FIG. 3E), “Max-10” (FIG. 3F), “E6-11” (FIG. 3G), “E6-13” (FIG. 3H), respectively.
In addition, Applicants performed sensitivity analysis to identify the most sensitive primer/probe set from among the candidate sets.
To validate the function of primer/probe sets, Applicants calculated the slope of delta Rn against cycle threshold for HPV-16 copy number detection from defined HPV copy number DNA derived from CaSki cell line.

HPV-16 [1] = test: qPCR sensitivity against HPV-HNSCC tumor samples diluted among 10 ng normal human DNA; conditions: for sensitivity under 100 cells / sensitivity under single cells / sensitivity under 10 cells: 32 HPV-HNSCC tumor samples; for sensitivity under single cells: 6.6 pg DNA; for sensitivity under 10 cells: 66 pg DNA; for Sensitivity, 1 cell / Sensitivity, 3 cells / Sensitivity, 10 cells / Sensitivity, 30 cells / Sensitivity, 100 cells: tumor DNA dilution, fraction of 32 samples
HPV-16 [2] = test: qPCR on 20 ng DNA from saliva samples of HPV-HNSCC patients; conditions: 28 HPV-HNSCC saliva samples
Experimental: as §1
The sensitivity of detection from saliva 20 ng DNA samples is 32.1% (9/28) in E6 primer-probe sets, 42.9% (12/28) in E7 primer-probe sets, 35.7% (10/28) in “Min-5” primer-probe sets, 46.4% (13/28) in “Max-10” primer-probe sets. The sensitivity of combination of “5” and “10” is 50% (14/28) and that of E6 and E7 is 42.9% (12/28). By the standard curve analysis, the copy numbers that detected by “Max-10” primer-probe sets were the highest in these 4 primer-probe sets. The slope of standard curve is −3.5 in “Min-5” primer-probe sets when delta Rn is plotted against cycle threshold (FIG. 5).

[3] = among 10 ng normal DNA, triplicate qPCR

B1: BR E6-1: HPV-16 E6 region (172-373 bp) primer/probe set, SEQ ID NO: 58-60 (nucleic acid)
DNA 1: CAGTTACTGCGACGTGAGGT
DNA 2: ACAGCATATGGATTCCCATCTC
DNA 3: ACTTTGCTTTTCGGGATTTATGCATAGTA
modifications: chemistry not given here
reaction under 30 copies of HPV-16 genome (HPV-16 genome; [3]): consistently amplified | reaction under 30 copies of HPV-16 genome (HPV-16 genome; among 10 ng normal DNA, triplicate qPCR, listed as E6-11): react consistently | number of reactions against 10 HPV-16 copies (HPV-16 genome): one | number of reactions under 30 HPV-16 copies (HPV-16 genome): 3 reactions | sensitivity under 100 cells (HPV-16 [1]): 87.5% | sensitivity under single cells (HPV-16 [1]): 3.1% | sensitivity under 10 cells (HPV-16 [1]): 46.9% | Threshold of tumor cell numbers for HPV-16 detection (HPV-16 [1]; Sample # 1): 150.0 tumor cells | Threshold of tumor cell numbers for HPV-16 detection (HPV-16 [1]; Sample # 2): 30.0 tumor cells | Threshold of tumor cell numbers for HPV-16 detection (HPV-16 [1]; Sample # 3): 150.0 tumor cells | Threshold of tumor cell numbers for HPV-16 detection (HPV-16 [1]; Sample # 4): 60.0 tumor cells | Threshold of tumor cell numbers for HPV-16 detection (HPV-16 [1]; Sample # 5): 30.0 tumor cells | Threshold of tumor cell numbers for HPV-16 detection (HPV-16 [1]; Sample # 6): 60.0 tumor cells | Threshold of tumor cell numbers for HPV-16 detection (HPV-16 [1]; Sample # 7): 30.0 tumor cells | Threshold of tumor cell numbers for HPV-16 detection (HPV-16 [1]; Sample # 8): 150.0 tumor cells | Threshold of tumor cell numbers for HPV-16 detection (HPV-16 [1]; Sample # 9): 30.0 tumor cells | Threshold of tumor cell numbers for HPV-16 detection (HPV-16 [1]; Sample # 10): 30.0 tumor cells | Threshold of tumor cell numbers for HPV-16 detection (HPV-16 [1]; Sample # 11): 30.0 tumor cells | Threshold of tumor cell numbers for HPV-16 detection (HPV-16 [1]; Sample # 12): 15.0 tumor cells | Threshold of tumor cell numbers for HPV-16 detection (HPV-16 [1]; Sample # 13): 60.0 tumor cells | Threshold of tumor cell numbers for HPV-16 detection (HPV-16 [1]; Sample # 14): 60.0 tumor cells | Threshold of tumor cell numbers for HPV-16 detection (HPV-16 [1]; Sample # 15): 30.0 tumor cells | Threshold of tumor cell numbers for HPV-16 detection (HPV-16 [1]; Sample # 16): 6.0 tumor cells | Threshold of tumor cell numbers for HPV-16 detection (HPV-16 [1]; Sample # 17): 6.0 tumor cells | Threshold of tumor cell numbers for HPV-16 detection (HPV-16 [1]; Sample # 18): 1.2 tumor cells | Threshold of tumor cell numbers for HPV-16 detection (HPV-16 [1]; Sample # 19): 6.0 tumor cells | Threshold of tumor cell numbers for HPV-16 detection (HPV-16 [1]; Sample # 20): 1.2 tumor cells | Threshold of tumor cell numbers for HPV-16 detection (HPV-16 [1]; Sample # 21): 1.2 tumor cells | Threshold of tumor cell numbers for HPV-16 detection (HPV-16 [1]; Sample # 22): 6.0 tumor cells | Threshold of tumor cell numbers for HPV-16 detection (HPV-16 [1]; Sample # 23): 1.2 tumor cells | Threshold of tumor cell numbers for HPV-16 detection (HPV-16 [1]; Sample # 24): 1.2 tumor cells | Threshold of tumor cell numbers for HPV-16 detection (HPV-16 [1]; Sample # 25): 1.2 tumor cells | Threshold of tumor cell numbers for HPV-16 detection (HPV-16 [1]; Sample # 26): 1.2 tumor cells | Threshold of tumor cell numbers for HPV-16 detection (HPV-16 [1]; Sample # 27): 1.0 tumor cells | Threshold of tumor cell numbers for HPV-16 detection (HPV-16 [1]; Sample # 28): 1.0 tumor cells | Threshold of tumor cell numbers for HPV-16 detection (HPV-16 [1]; Sample # 29): 1.0 tumor cells | Threshold of tumor cell numbers for HPV-16 detection (HPV-16 [1]; Sample # 30): 150.0 tumor cells | Threshold of tumor cell numbers for HPV-16 detection (HPV-16 [1]; Sample # 31): 0.6 tumor cells | Threshold of tumor cell numbers for HPV-16 detection (HPV-16 [1]; Sample # 32): 15.0 tumor cells | Sensitivity, 1 cell (HPV-16 [1]): 0.031 | Sensitivity, 3 cells (HPV-16 [1]): 0.344 | Sensitivity, 10 cells (HPV-16 [1]): 0.469 | Sensitivity, 30 cells (HPV-16 [1]): 0.750 | Sensitivity, 100 cells (HPV-16 [1]): 0.875

B2: E6: previously designed (historical) HPV-16 E6 primers and Taqman probe, SEQ ID NO: 7-9, positive control (nucleic acid)
DNA 1: TCAGGACCCACAGGAGCG
DNA 2: CCTCACGTCGCAGTAACTGTTG
DNA 3: CCCAGAAAGTTACCACAGTTATGCACAGAGCT
modifications: Taqman probe, labels not given here
sensitivity of detection from saliva 20 ng DNA samples (HPV-16 [2]): 32.1% | sensitivity (HPV-16 copies) (HPV-16 genome; HPV-16 genome among normal 10 ng DNA samples, consistent triplicate reaction): 30 copies | reaction under 10 copies of HPV-16 genome (HPV-16 genome; [3]): reacted inconsistently | reaction under 30 copies of HPV-16 genome (HPV-16 genome; [3]): reacted consistently triplicate; also recorded: reacted consistently in triplicates | number of reactions against 10 HPV-16 copies (HPV-16 genome): one | number of reactions under 30 HPV-16 copies (HPV-16 genome): 3 reactions | sensitivity under 100 cells (HPV-16 [1]): 90.6% | sensitivity under single cells (HPV-16 [1]): 12.5% | sensitivity under 10 cells (HPV-16 [1]): 53.1% | Threshold of tumor cell numbers for HPV-16 detection (HPV-16 [1]; Sample # 1): 150.0 tumor cells | Threshold of tumor cell numbers for HPV-16 detection (HPV-16 [1]; Sample # 2): 30.0 tumor cells | Threshold of tumor cell numbers for HPV-16 detection (HPV-16 [1]; Sample # 3): 6.0 tumor cells | Threshold of tumor cell numbers for HPV-16 detection (HPV-16 [1]; Sample # 4): 150.0 tumor cells | Threshold of tumor cell numbers for HPV-16 detection (HPV-16 [1]; Sample # 5): 30.0 tumor cells | Threshold of tumor cell numbers for HPV-16 detection (HPV-16 [1]; Sample # 6): 150.0 tumor cells | Threshold of tumor cell numbers for HPV-16 detection (HPV-16 [1]; Sample # 7): 30.0 tumor cells | Threshold of tumor cell numbers for HPV-16 detection (HPV-16 [1]; Sample # 8): 15.0 tumor cells | Threshold of tumor cell numbers for HPV-16 detection (HPV-16 [1]; Sample # 9): 60.0 tumor cells | Threshold of tumor cell numbers for HPV-16 detection (HPV-16 [1]; Sample # 10): 30.0 tumor cells | Threshold of tumor cell numbers for HPV-16 detection (HPV-16 [1]; Sample # 11): 60.0 tumor cells | Threshold of tumor cell numbers for HPV-16 detection (HPV-16 [1]; Sample # 12): 15.0 tumor cells | Threshold of tumor cell numbers for HPV-16 detection (HPV-16 [1]; Sample # 13): 6.0 tumor cells | Threshold of tumor cell numbers for HPV-16 detection (HPV-16 [1]; Sample # 14): 6.0 tumor cells | Threshold of tumor cell numbers for HPV-16 detection (HPV-16 [1]; Sample # 15): 6.0 tumor cells | Threshold of tumor cell numbers for HPV-16 detection (HPV-16 [1]; Sample # 16): 6.0 tumor cells | Threshold of tumor cell numbers for HPV-16 detection (HPV-16 [1]; Sample # 17): 30.0 tumor cells | Threshold of tumor cell numbers for HPV-16 detection (HPV-16 [1]; Sample # 18): 6.0 tumor cells | Threshold of tumor cell numbers for HPV-16 detection (HPV-16 [1]; Sample # 19): 1.2 tumor cells | Threshold of tumor cell numbers for HPV-16 detection (HPV-16 [1]; Sample # 20): 0.5 tumor cells | Threshold of tumor cell numbers for HPV-16 detection (HPV-16 [1]; Sample # 21): 1.2 tumor cells | Threshold of tumor cell numbers for HPV-16 detection (HPV-16 [1]; Sample # 22): 0.3 tumor cells | Threshold of tumor cell numbers for HPV-16 detection (HPV-16 [1]; Sample # 23): 1.2 tumor cells | Threshold of tumor cell numbers for HPV-16 detection (HPV-16 [1]; Sample # 24): 1.2 tumor cells | Threshold of tumor cell numbers for HPV-16 detection (HPV-16 [1]; Sample # 25): 0.3 tumor cells | Threshold of tumor cell numbers for HPV-16 detection (HPV-16 [1]; Sample # 26): 0.6 tumor cells | Threshold of tumor cell numbers for HPV-16 detection (HPV-16 [1]; Sample # 27): 15.0 tumor cells | Threshold of tumor cell numbers for HPV-16 detection (HPV-16 [1]; Sample # 28): 3.0 tumor cells | Threshold of tumor cell numbers for HPV-16 detection (HPV-16 [1]; Sample # 29): 3.0 tumor cells | Threshold of tumor cell numbers for HPV-16 detection (HPV-16 [1]; Sample # 30): 15.0 tumor cells | Threshold of tumor cell numbers for HPV-16 detection (HPV-16 [1]; Sample # 31): 3.0 tumor cells | Threshold of tumor cell numbers for HPV-16 detection (HPV-16 [1]; Sample # 32): 15.0 tumor cells | Sensitivity, 1 cell (HPV-16 [1]): 0.125 | Sensitivity, 3 cells (HPV-16 [1]): 0.250 | Sensitivity, 10 cells (HPV-16 [1]): 0.531 | Sensitivity, 30 cells (HPV-16 [1]): 0.844 | Sensitivity, 100 cells (HPV-16 [1]): 0.906
